Experimental data taken from patent US20200405852A1 (BIOVERATIV USA, published 2020).

T1: activated human complement C1s (human, UniProt P09871 16-688)
T1 sequence: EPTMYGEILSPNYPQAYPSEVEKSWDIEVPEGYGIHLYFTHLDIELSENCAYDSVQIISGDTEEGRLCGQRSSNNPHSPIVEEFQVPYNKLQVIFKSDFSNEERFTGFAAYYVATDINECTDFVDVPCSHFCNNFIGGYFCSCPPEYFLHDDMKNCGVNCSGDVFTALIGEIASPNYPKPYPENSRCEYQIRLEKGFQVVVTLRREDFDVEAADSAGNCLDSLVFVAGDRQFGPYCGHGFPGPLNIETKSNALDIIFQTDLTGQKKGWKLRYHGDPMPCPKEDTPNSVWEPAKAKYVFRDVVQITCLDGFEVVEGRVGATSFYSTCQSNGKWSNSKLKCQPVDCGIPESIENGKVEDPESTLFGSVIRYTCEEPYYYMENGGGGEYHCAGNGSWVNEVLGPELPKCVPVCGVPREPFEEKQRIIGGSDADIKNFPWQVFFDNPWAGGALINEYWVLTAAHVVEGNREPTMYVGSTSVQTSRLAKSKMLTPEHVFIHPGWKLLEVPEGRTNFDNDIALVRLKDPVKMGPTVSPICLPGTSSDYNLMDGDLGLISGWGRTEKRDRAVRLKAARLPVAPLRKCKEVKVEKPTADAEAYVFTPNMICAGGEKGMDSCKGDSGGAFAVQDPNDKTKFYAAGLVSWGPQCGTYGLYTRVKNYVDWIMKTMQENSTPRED


Assays:
[1] = target: T1, activated human complement C1s; assay: cell-based or functional assay
[2] = target: T1, activated human complement C1s; assay: direct binding of antibody to activated C1s (aC1s); assay format not stated
[3] = target: T1, activated human complement C1s; assay: competition binding to active C1s; competitor 50 pM biotinylated TNT005 (Biot-005)
Procedure: All 15 combinations (VH variant 1+Vk variant 1; VH variant 1+Vk variant 2; VH variant 1+Vk variant 5; VH variant 2+Vk variant 1; VH variant 2+Vk variant 2; VH variant 2+Vk variant 5; VH variant 3+Vk variant 1; VH variant 3+Vk variant 2; VH variant 3+Vk variant 5; VH variant 4+Vk variant 1; VH variant 4+Vk variant 2; VH variant 4+Vk variant 5; VH variant 5+Vk variant 1; VH variant 5+Vk variant 2; VH variant 5+Vk variant 5) were produced. Each humanized variant was tested for the ability to compete with biotinylated TNT005 for binding to active C1s.

[4] = target: T1, activated human complement C1s; assay: kinetic characterization of binding to active human C1s; instrument not stated
[5] = target: T1, activated human complement C1s; assay: kinetic characterization of binding to active human C1s; instrument not stated; column head kdis

| Binder | IC50 of classical complement pathway inhibition (commercial CP activation assay) [1] | EC50 [2] | IC50 [3] | Kd [4] | kon [4] | koff [5] |
| --- | --- | --- | --- | --- | --- | --- |
| TNT005.001 (antibody, V domains shown, Unlabelled parental antibody; also called parental TNT005 (not biotinylated)) VH: EVQLQQSGAELVRPGASVKLSCTASGFNIKDDYIHWVKQRPEQGLEWIGRIDPADGHTKYAPKFQVKATITADTSSNTAYLQLSSLTSEDTAVYYCARYGYGREVFDYWGQGTTLTVSS VL: DIVLTQSPASLAVSLGQRATISCKASQSVDYDGDSYMNWYQQKTGQPPKILIYDASNLESGIPARFSGSGSGTDFTLNIHPVEEEDAAIYYCQQSNEDPWTFGGGTKLEIK | 1060 pM | 55.9 pM | 39.5 pM | – | – | – |
| biotinylated TNT005 (antibody, V domains shown, Parental antibody; also called Biot-005; parental TNT005) VH: EVQLQQSGAELVRPGASVKLSCTASGFNIKDDYIHWVKQRPEQGLEWIGRIDPADGHTKYAPKFQVKATITADTSSNTAYLQLSSLTSEDTAVYYCARYGYGREVFDYWGQGTTLTVSS VL: DIVLTQSPASLAVSLGQRATISCKASQSVDYDGDSYMNWYQQKTGQPPKILIYDASNLESGIPARFSGSGSGTDFTLNIHPVEEEDAAIYYCQQSNEDPWTFGGGTKLEIK | – | 82.8 pM | – | – | – | – |
| humanized TNT005 variant VH variant 3+Vk variant 2 (antibody, V domains shown, also called VH variant 3 + VL variant 2) VH: QVQLVQSGAEVKKPGASVKLSCTASGFNIKDDYIHWVKQAPGQGLEWIGRIDPADGHTKYAPKFQVKVTITADTSTSTAYLELSSLRSEDTAVYYCARYGYGREVFDYWGQGTTVTVSS VL: DIVLTQSPDSLAVSLGERATISCKASQSVDYDGDSYMNWYQQKPGQPPKILIYDASNLESGIPARFSGSGSGTDFTLTISSLEPEDFAIYYCQQSNEDPWTFGGGTKVEIK | 1260 pM | 163 pM | 183 pM | 585 pM | 838000 M⁻¹ s⁻¹ | 0.00049 s⁻¹ |
| humanized TNT005 variant VH variant 3+Vk variant 5 (antibody, V domains shown, also called VH variant 3 + VL variant 5) VH: QVQLVQSGAEVKKPGASVKLSCTASGFNIKDDYIHWVKQAPGQGLEWIGRIDPADGHTKYAPKFQVKVTITADTSTSTAYLELSSLRSEDTAVYYCARYGYGREVFDYWGQGTTVTVSS VL: DIVLTQSPDSLAVSLGERATISCKASQSVDYDGDSYMNWYQQKPGQPPKLLIYDASNLESGIPARFSGSGSGTDFTLTISSLEPEDFAVYYCQQSNEDPWTFGGGTKVEIK | 1380 pM | 138 pM | 158 pM | – | – | – |
| humanized TNT005 variant VH variant 3+Vk variant 1 (antibody, V domains shown, also called VH variant 3 + VL variant 1) VH: QVQLVQSGAEVKKPGASVKLSCTASGFNIKDDYIHWVKQAPGQGLEWIGRIDPADGHTKYAPKFQVKVTITADTSTSTAYLELSSLRSEDTAVYYCARYGYGREVFDYWGQGTTVTVSS VL: DIVLTQSPDSLAVSLGERATISCKASQSVDYDGDSYMNWYQQKTGQPPKILIYDASNLESGIPARFSGSGSGTDFTLTISSLEEEDFAIYYCQQSNEDPWTFGGGTKVEIK | 1270 pM | 168 pM | 179 pM | – | – | – |
| humanized TNT005 variant VH variant 4+Vk variant 1 (antibody, V domains shown, also called VH variant 4 + VL variant 1) VH: QVQLVQSGAEVKKPGASVKVSCTASGFNIKDDYIHWVRQAPGQGLEWIGRIDPADGHTKYAPKFQVKVTITADTSTSTAYMELSSLRSEDTAVYYCARYGYGREVFDYWGQGTTVTVSS VL: DIVLTQSPDSLAVSLGERATISCKASQSVDYDGDSYMNWYQQKTGQPPKILIYDASNLESGIPARFSGSGSGTDFTLTISSLEEEDFAIYYCQQSNEDPWTFGGGTKVEIK | 1350 pM | 152 pM | 152 pM | – | – | – |
| humanized TNT005 variant VH variant 5+Vk variant 2 (antibody, V domains shown, also called VH variant 5 + VL variant 2) VH: QVQLVQSGAEVKKPGASVKVSCAASGFNIKDDYIHWVRQAPGQGLEWIGRIDPADGHTKYAPKFQVKVTITADTSTSTAYMELSSLRSEDTAVYYCARYGYGREVFDYWGQGTTVTVSS VL: DIVLTQSPDSLAVSLGERATISCKASQSVDYDGDSYMNWYQQKPGQPPKILIYDASNLESGIPARFSGSGSGTDFTLTISSLEPEDFAIYYCQQSNEDPWTFGGGTKVEIK | 1310 pM | 164 pM | 148 pM | – | – | – |
| humanized TNT005 variant VH variant 1+Vk variant 2 (antibody, V domains shown, also called VH variant 1 + VL variant 2) VH: EVQLVQSGAELKKPGASVKLSCTASGFNIKDDYIHWVKQAPGQGLEWIGRIDPADGHTKYAPKFQVKATITADTSTNTAYLQLSSLTSEDTAVYYCARYGYGREVFDYWGQGTTVTVSS VL: DIVLTQSPDSLAVSLGERATISCKASQSVDYDGDSYMNWYQQKPGQPPKILIYDASNLESGIPARFSGSGSGTDFTLTISSLEPEDFAIYYCQQSNEDPWTFGGGTKVEIK | 1140 pM | 88 pM | 55.7 pM | 208 pM | 818000 M⁻¹ s⁻¹ | 0.00017 s⁻¹ |
| humanized TNT005 variant VH variant 4+Vk variant 5 (antibody, V domains shown, also called VH variant 4 + VL variant 5) VH: QVQLVQSGAEVKKPGASVKVSCTASGFNIKDDYIHWVRQAPGQGLEWIGRIDPADGHTKYAPKFQVKVTITADTSTSTAYMELSSLRSEDTAVYYCARYGYGREVFDYWGQGTTVTVSS VL: DIVLTQSPDSLAVSLGERATISCKASQSVDYDGDSYMNWYQQKPGQPPKLLIYDASNLESGIPARFSGSGSGTDFTLTISSLEPEDFAVYYCQQSNEDPWTFGGGTKVEIK | 1540 pM | 205 pM | 156 pM | – | – | – |
| humanized TNT005 variant VH variant 1+Vk variant 5 (antibody, V domains shown, also called VH variant 1 + VL variant 5) VH: EVQLVQSGAELKKPGASVKLSCTASGFNIKDDYIHWVKQAPGQGLEWIGRIDPADGHTKYAPKFQVKATITADTSTNTAYLQLSSLTSEDTAVYYCARYGYGREVFDYWGQGTTVTVSS VL: DIVLTQSPDSLAVSLGERATISCKASQSVDYDGDSYMNWYQQKPGQPPKLLIYDASNLESGIPARFSGSGSGTDFTLTISSLEPEDFAVYYCQQSNEDPWTFGGGTKVEIK | 1260 pM | 107 pM | 129 pM | 217 pM | 776000 M⁻¹ s⁻¹ | 0.000168 s⁻¹ |
| humanized TNT005 variant VH variant 1+Vk variant 1 (antibody, V domains shown, also called VH variant 1 + VL variant 1) VH: EVQLVQSGAELKKPGASVKLSCTASGFNIKDDYIHWVKQAPGQGLEWIGRIDPADGHTKYAPKFQVKATITADTSTNTAYLQLSSLTSEDTAVYYCARYGYGREVFDYWGQGTTVTVSS VL: DIVLTQSPDSLAVSLGERATISCKASQSVDYDGDSYMNWYQQKTGQPPKILIYDASNLESGIPARFSGSGSGTDFTLTISSLEEEDFAIYYCQQSNEDPWTFGGGTKVEIK | 1200 pM | 201 pM | 124 pM | 228 pM | 864000 M⁻¹ s⁻¹ | 0.000197 s⁻¹ |
| humanized TNT005 variant VH variant 4+Vk variant 2 (antibody, V domains shown, also called VH variant 4 + VL variant 2) VH: QVQLVQSGAEVKKPGASVKVSCTASGFNIKDDYIHWVRQAPGQGLEWIGRIDPADGHTKYAPKFQVKVTITADTSTSTAYMELSSLRSEDTAVYYCARYGYGREVFDYWGQGTTVTVSS VL: DIVLTQSPDSLAVSLGERATISCKASQSVDYDGDSYMNWYQQKPGQPPKILIYDASNLESGIPARFSGSGSGTDFTLTISSLEPEDFAIYYCQQSNEDPWTFGGGTKVEIK | 1310 pM | 119 pM | 158 pM | – | – | – |
| humanized TNT005 variant VH variant 5+Vk variant 5 (antibody, V domains shown, also called VH variant 5 + VL variant 5) VH: QVQLVQSGAEVKKPGASVKVSCAASGFNIKDDYIHWVRQAPGQGLEWIGRIDPADGHTKYAPKFQVKVTITADTSTSTAYMELSSLRSEDTAVYYCARYGYGREVFDYWGQGTTVTVSS VL: DIVLTQSPDSLAVSLGERATISCKASQSVDYDGDSYMNWYQQKPGQPPKLLIYDASNLESGIPARFSGSGSGTDFTLTISSLEPEDFAVYYCQQSNEDPWTFGGGTKVEIK | 1330 pM | 165 pM | 137 pM | – | – | – |
